Molecular target: T1, IL10R1-Fc (human, UniProt Q13651 22-235)
T1 chain: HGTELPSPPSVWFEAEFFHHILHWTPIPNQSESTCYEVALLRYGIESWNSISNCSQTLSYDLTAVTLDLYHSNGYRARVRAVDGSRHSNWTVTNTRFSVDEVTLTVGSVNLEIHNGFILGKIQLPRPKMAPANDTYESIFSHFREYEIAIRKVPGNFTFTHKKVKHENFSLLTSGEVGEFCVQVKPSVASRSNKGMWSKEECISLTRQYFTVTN
Assay: BLI; marked *

Row | Binder | Kd
1 | XENP25757 (D41N) (protein) chain 1: EPKSSDKTHTCPPCPAPPVAGPSVFLFPPKPKDTLMISRTPEVTCVVVDVKHEDPEVKFNWYVDGVEVHNAKTKPREEEYNSTYRVVSVLTVLHQDWLNGKEYKCKVSNKALPAPIEKTISKAKGQPREPQVYTLPPSREEMTKNQVSLTCDVSGFYPSDIAVEWESDGQPENNYKTTPPVLDSDGSFFLYSKLTVDKSRWEQGDVFSCSVMHEALHNHYTQKSLSLSPGK chain 2: SPGQGTQSENSCTHFPGNLPNMLRDLRDAFSRVKTFFQMKNQLDNLLLKESLLEDFKGYLGCQALSEMIQFYLEEVMPQAENQDPDIKAHVNSLGENLKTLRLRLRRCHRFLPCENGGGSGGKSKAVEQVKNAFNKLQEKGIYKAMSEFDIFINYIEAYMTMKIRNEPKSSDKTHTCPPCPAPPVAGPSVFLFPPKPKDTLMISRTPEVTCVVVDVKHEDPEVKFNWYVDGVEVHNAKTKPREEQYNSTYRVVSVLTVLHQDWLNGKEYKCKVSNKALPAPIEKTISKAKGQPREPQVYTLPPSREQMTKNQVKLTCLVKGFYPSDIAVEWESNGQPENNYKTTPPVLDSDGSFFLYSKLTVDKSRWQQGNVFSCSVMHEALHNHYTQKSLSLSPGK | 12.4 nM
2 | XENP25767 (D144N) (protein) chain 1: EPKSSDKTHTCPPCPAPPVAGPSVFLFPPKPKDTLMISRTPEVTCVVVDVKHEDPEVKFNWYVDGVEVHNAKTKPREEEYNSTYRVVSVLTVLHQDWLNGKEYKCKVSNKALPAPIEKTISKAKGQPREPQVYTLPPSREEMTKNQVSLTCDVSGFYPSDIAVEWESDGQPENNYKTTPPVLDSDGSFFLYSKLTVDKSRWEQGDVFSCSVMHEALHNHYTQKSLSLSPGK chain 2: SPGQGTQSENSCTHFPGNLPNMLRDLRDAFSRVKTFFQMKDQLDNLLLKESLLEDFKGYLGCQALSEMIQFYLEEVMPQAENQDPDIKAHVNSLGENLKTLRLRLRRCHRFLPCENGGGSGGKSKAVEQVKNAFNKLQEKGIYKAMSEFNIFINYIEAYMTMKIRNEPKSSDKTHTCPPCPAPPVAGPSVFLFPPKPKDTLMISRTPEVTCVVVDVKHEDPEVKFNWYVDGVEVHNAKTKPREEQYNSTYRVVSVLTVLHQDWLNGKEYKCKVSNKALPAPIEKTISKAKGQPREPQVYTLPPSREQMTKNQVKLTCLVKGFYPSDIAVEWESNGQPENNYKTTPPVLDSDGSFFLYSKLTVDKSRWQQGNVFSCSVMHEALHNHYTQKSLSLSPGK | 23.8 nM

Other lines, results leading:

Row | Kd | Binder
3 | 12.4 nM | XENP25768 (E151Q) (protein) chain 1: EPKSSDKTHTCPPCPAPPVAGPSVFLFPPKPKDTLMISRTPEVTCVVVDVKHEDPEVKFNWYVDGVEVHNAKTKPREEEYNSTYRVVSVLTVLHQDWLNGKEYKCKVSNKALPAPIEKTISKAKGQPREPQVYTLPPSREEMTKNQVSLTCDVSGFYPSDIAVEWESDGQPENNYKTTPPVLDSDGSFFLYSKLTVDKSRWEQGDVFSCSVMHEALHNHYTQKSLSLSPGK chain 2: SPGQGTQSENSCTHFPGNLPNMLRDLRDAFSRVKTFFQMKDQLDNLLLKESLLEDFKGYLGCQALSEMIQFYLEEVMPQAENQDPDIKAHVNSLGENLKTLRLRLRRCHRFLPCENGGGSGGKSKAVEQVKNAFNKLQEKGIYKAMSEFDIFINYIQAYMTMKIRNEPKSSDKTHTCPPCPAPPVAGPSVFLFPPKPKDTLMISRTPEVTCVVVDVKHEDPEVKFNWYVDGVEVHNAKTKPREEQYNSTYRVVSVLTVLHQDWLNGKEYKCKVSNKALPAPIEKTISKAKGQPREPQVYTLPPSREQMTKNQVKLTCLVKGFYPSDIAVEWESNGQPENNYKTTPPVLDSDGSFFLYSKLTVDKSRWQQGNVFSCSVMHEALHNHYTQKSLSLSPGK
4 | 6.13 nM | XENP25755 (Q38E) (protein) chain 1: EPKSSDKTHTCPPCPAPPVAGPSVFLFPPKPKDTLMISRTPEVTCVVVDVKHEDPEVKFNWYVDGVEVHNAKTKPREEEYNSTYRVVSVLTVLHQDWLNGKEYKCKVSNKALPAPIEKTISKAKGQPREPQVYTLPPSREEMTKNQVSLTCDVSGFYPSDIAVEWESDGQPENNYKTTPPVLDSDGSFFLYSKLTVDKSRWEQGDVFSCSVMHEALHNHYTQKSLSLSPGK chain 2: SPGQGTQSENSCTHFPGNLPNMLRDLRDAFSRVKTFFEMKDQLDNLLLKESLLEDFKGYLGCQALSEMIQFYLEEVMPQAENQDPDIKAHVNSLGENLKTLRLRLRRCHRFLPCENGGGSGGKSKAVEQVKNAFNKLQEKGIYKAMSEFDIFINYIEAYMTMKIRNEPKSSDKTHTCPPCPAPPVAGPSVFLFPPKPKDTLMISRTPEVTCVVVDVKHEDPEVKFNWYVDGVEVHNAKTKPREEQYNSTYRVVSVLTVLHQDWLNGKEYKCKVSNKALPAPIEKTISKAKGQPREPQVYTLPPSREQMTKNQVKLTCLVKGFYPSDIAVEWESNGQPENNYKTTPPVLDSDGSFFLYSKLTVDKSRWQQGNVFSCSVMHEALHNHYTQKSLSLSPGK

Source: patent US20210171596A1 (published 2021)
